Blank lines part the entries; values can stand above or below the binder they belong to.
Target: T1, recombinant hTfR described in Example 2 of WO2018/124121, random biotinylated (human, UniProt P02786 89-760, randomly biotinylated with NHS-PEG4-Biotin)
T1 construct: held on a streptavidin plate for ELISA; also called human TfR
Experiment: ELISA, target on streptavidin plate, sample at 100 nM, anti-human IgG-HRP

T1 sequence (P02786 89-760 limits assumed): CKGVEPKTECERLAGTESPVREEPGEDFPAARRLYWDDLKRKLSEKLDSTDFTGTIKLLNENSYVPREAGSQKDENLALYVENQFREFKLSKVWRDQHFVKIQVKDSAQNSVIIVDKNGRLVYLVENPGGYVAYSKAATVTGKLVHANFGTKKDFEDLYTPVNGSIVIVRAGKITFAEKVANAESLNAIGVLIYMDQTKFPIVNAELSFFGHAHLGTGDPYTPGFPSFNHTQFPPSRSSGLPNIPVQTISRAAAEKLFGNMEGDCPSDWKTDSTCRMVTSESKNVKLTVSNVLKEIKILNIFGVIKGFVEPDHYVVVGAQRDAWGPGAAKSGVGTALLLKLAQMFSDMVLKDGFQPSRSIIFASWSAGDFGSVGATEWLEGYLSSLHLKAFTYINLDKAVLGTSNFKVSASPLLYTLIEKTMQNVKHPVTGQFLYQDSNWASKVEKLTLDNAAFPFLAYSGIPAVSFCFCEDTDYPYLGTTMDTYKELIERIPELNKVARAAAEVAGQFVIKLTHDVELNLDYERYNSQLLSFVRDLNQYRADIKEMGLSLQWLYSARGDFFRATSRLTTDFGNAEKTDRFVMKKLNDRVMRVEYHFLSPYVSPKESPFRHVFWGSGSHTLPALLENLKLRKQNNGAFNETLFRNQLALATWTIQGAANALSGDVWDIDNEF

Abs450 nm at 100 nM: 0.0435 Abs450 nm
B1: ipilimumab (Selleck Biotech Co., Ltd., Cat. No. A2001) (antibody, V domains shown)
VH: QVQLVESGGGVVQPGRSLRLSCAASGFTFSSYTMHWVRQAPGKGLEWVTFISYDGNNKYYADSVKGRFTISRDNSKNTLYLQMNSLRAEDTAIYYCARTGWLGPFDYWGQGTLVTVSS
VL: not shown

Abs450 nm at 100 nM: 0.041 Abs450 nm
B2: pembrolizumab (Selleck Biotech Co., Ltd., Cat. No. A2005) (antibody, V domains shown)
VH: QVQLVQSGVEVKKPGASVKVSCKASGYTFTNYYMYWVRQAPGQGLEWMGGINPSNGGTNFNEKFKNRVTLTTDSSTTTAYMELKSLQFDDTAVYYCARRDYRFDMGFDYWGQGTTVTVSS
VL: EIVLTQSPATLSLSPGERATLSCRASKGVSTSGYSYLHWYQQKPGQAPRLLIYLASYLESGVPARFSGSGSGTDFTLTISSLEPEDFAVYYCQHSRDLPLTFGGGTKVEIKR

Abs450 nm at 100 nM: 0.049 Abs450 nm
B3: nivolumab (Selleckchem, Cat. No. A2002) (antibody, V domains shown)
VH: QVQLVESGGGVVQPGRSLRLDCKASGITFSNSGMHWVRQAPGKGLEWVAVIWYDGSKRYYADSVKGRFTISRDNSKNTLFLQMNSLRAEDTAVYYCATNDDYWGQGTLVTVSS
VL: EIVLTQSPATLSLSPGERATLSCRASQSVSSYLAWYQQKPGQAPRLLIYDASNRATGIPARFSGSGSGTDFTLTISSLEPEDFAVYYCQQSSNWPRTFGQGTKVEIK
